These results are taken from patent US20150037348A1 (AbbVie / Abbott, published 2015).

“And” between values parts separate entries of the source, which are not always exact repeats. Equal values may be shown once. Read-outs that look alike come from different tables or passages of the source.

Broadly, the IC50 is the midpoint of a concentration-inhibition curve.

For assay [1], the target named is T1, recombinant human IL-12 (rhIL-12) (human, UniProt P29459 23-219; P29460 23-328).
T1 construct: disulfide-linked p35/p40 heterodimer (p70); also called IL-12 p70; rec. human IL12
T1 sequence (looked up) 1: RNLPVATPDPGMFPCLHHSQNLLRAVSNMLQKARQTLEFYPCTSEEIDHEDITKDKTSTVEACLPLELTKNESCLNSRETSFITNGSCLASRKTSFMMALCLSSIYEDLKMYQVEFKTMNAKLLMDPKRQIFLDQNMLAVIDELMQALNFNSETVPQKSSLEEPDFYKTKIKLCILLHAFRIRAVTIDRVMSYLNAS
T1 sequence (looked up) 2: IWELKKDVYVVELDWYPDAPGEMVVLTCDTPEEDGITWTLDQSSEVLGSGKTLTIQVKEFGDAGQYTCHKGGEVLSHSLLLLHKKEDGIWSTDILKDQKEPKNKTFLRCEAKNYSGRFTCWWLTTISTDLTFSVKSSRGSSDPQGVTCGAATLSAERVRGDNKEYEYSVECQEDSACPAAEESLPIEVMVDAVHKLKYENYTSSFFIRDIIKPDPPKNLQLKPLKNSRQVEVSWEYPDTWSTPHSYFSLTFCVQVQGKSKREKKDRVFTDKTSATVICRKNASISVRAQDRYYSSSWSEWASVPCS
As to the kind of experiment: receptor binding assay, 125I-hIL-12 on PHA blasts. The procedure: (§1) PHA blast cells isolated as described above, were washed once and resuspended in binding buffer to a cell density of 2×10⁷ cells/ml. […] The cell pellet was examined for cell bound radioactivity using a gamma counter. […] Incubations were carried out in duplicate.

In assay [2] the target is T1, recombinant human IL-12 (rhIL-12). In words: cell-based or functional assay.
The target in another assay is T2, recombinant rhesus IL-12 (rhesus monkey, UniProt P48091 23-219; P48095 23-328).
T2 sequence (looked up) 1: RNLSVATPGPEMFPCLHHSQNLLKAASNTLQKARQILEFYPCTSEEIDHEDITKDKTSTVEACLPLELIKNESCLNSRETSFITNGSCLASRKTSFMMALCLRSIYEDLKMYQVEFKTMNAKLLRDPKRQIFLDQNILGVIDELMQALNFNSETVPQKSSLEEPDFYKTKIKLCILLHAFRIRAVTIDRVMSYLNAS
T2 sequence (looked up) 2: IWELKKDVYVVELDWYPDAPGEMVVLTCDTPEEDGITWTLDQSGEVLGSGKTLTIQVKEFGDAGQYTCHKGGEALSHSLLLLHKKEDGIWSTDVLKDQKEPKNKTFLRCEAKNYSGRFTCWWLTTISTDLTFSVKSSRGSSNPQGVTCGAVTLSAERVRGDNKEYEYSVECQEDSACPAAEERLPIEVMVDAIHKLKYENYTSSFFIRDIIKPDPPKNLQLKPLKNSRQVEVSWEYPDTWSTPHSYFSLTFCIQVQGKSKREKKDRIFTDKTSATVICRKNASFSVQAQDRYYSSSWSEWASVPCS
In words: cell-based or functional assay.

Assay [3] concerns the target T3, baboon IL-12 (PBMC supernatant) (baboon).
T3 chain 1: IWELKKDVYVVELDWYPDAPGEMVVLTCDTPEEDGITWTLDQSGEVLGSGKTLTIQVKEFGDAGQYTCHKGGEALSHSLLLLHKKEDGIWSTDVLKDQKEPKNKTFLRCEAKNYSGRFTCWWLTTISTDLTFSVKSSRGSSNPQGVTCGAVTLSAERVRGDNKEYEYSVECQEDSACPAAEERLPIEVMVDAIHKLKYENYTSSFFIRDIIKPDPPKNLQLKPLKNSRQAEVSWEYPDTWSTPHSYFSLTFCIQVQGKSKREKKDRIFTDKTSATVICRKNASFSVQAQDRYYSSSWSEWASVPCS
T3 chain 2: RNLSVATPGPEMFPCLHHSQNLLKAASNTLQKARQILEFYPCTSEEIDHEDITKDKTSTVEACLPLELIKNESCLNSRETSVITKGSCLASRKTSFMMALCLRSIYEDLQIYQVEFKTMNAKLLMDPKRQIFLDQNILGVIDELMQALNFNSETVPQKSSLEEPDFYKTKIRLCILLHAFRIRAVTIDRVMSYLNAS
In words: cell-based or functional assay.

The target of assay [4] is T4, cynomolgus IL-12 (PBMC supernatant) (cynomolgus monkey).
T4 chain 1: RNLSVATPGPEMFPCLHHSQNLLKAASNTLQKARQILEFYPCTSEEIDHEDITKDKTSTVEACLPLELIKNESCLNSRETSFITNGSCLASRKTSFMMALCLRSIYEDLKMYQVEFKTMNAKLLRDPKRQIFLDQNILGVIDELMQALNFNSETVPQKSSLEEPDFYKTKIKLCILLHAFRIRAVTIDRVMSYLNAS
T4 chain 2: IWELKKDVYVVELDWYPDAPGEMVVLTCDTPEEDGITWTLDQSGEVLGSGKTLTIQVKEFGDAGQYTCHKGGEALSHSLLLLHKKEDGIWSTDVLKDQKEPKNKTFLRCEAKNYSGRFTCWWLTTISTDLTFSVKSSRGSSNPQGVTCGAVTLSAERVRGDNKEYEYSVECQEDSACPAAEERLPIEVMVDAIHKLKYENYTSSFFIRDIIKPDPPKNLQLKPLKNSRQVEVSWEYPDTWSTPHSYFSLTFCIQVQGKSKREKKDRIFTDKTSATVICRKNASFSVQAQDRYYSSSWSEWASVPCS
As to the kind of experiment: cell-based or functional assay.

Assay [5] deals with T1, recombinant human IL-12 (rhIL-12). In words: cell-based or functional assay. This is another data set of the same source.
Assay [6] has the same target. As to the kind of experiment: receptor binding assay, 125I-hIL-12 on PHA blasts. The procedure: as §1
Incubations were carried out in duplicate.
The source holds these as a separate data set.

Assay [7] has as its target T5, human IL-12 p40 subunit (free p40) (human, UniProt P29460 23-328).
T5 sequence (looked up): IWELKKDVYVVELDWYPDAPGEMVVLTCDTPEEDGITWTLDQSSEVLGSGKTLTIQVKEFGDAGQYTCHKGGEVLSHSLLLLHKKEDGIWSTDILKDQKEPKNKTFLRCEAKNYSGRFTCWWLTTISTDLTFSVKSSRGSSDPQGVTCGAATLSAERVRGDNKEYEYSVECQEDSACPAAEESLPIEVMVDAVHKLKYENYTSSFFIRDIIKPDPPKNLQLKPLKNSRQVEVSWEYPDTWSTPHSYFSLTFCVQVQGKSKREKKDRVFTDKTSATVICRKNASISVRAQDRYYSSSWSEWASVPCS
As to the kind of experiment: competition ELISA: soluble human IL-12 p40 (2 nM) against J695 binding to immobilized human IL-12. Here is the method:
The plates were washed 4 times and incubated for 1 h at room temperature with 100 μl mouse anti-human lambda-HRP (1:500 in PBS-T/BSA, Southern Biotech. Ass. Inc., Birmingham, Ala.). The plates were washed 4 times and developed with ABTS (Kirkegaard & Perry Lab, Gaithersburg, Md.) for 20-30 minutes in the dark. The OD₄₅₀ nm was read using a microplate reader (Molecular Devices, Menlo Park, Calif.).
For orientation: An ELISA detects its analyte on a solid surface through an enzyme-linked reagent.

A further assay concerns the target dog IL-12 (dog). As to the kind of experiment: cell-based or functional assay.
For assay [8], the target named is T6, chimeric IL-12 (murine p35 subunit with the human IL-12 p40 subunit) (mouse; human, UniProt P43431 23-215; P29460 23-328).
T6 sequence (looked up) 1: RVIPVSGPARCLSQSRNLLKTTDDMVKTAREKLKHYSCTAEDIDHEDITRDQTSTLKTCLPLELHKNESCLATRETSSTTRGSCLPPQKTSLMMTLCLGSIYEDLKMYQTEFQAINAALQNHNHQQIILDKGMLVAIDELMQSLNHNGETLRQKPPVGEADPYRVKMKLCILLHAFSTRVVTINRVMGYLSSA
T6 sequence (looked up) 2: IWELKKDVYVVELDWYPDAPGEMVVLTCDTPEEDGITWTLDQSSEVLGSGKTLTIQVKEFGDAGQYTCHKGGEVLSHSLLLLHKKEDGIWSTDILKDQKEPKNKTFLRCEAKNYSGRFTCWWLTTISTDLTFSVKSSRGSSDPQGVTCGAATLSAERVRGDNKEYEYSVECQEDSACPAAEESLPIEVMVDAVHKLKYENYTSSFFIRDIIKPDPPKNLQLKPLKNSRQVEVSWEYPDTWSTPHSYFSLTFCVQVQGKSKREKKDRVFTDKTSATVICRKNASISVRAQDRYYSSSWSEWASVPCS
As to the kind of experiment: inhibition of IFN-γ production in mice given chimeric IL-12. Here is the method:
The control hulgG1γ was given IP. at a dose of 0.05 mg/kg on days 0, 2, and 4. The mice were bled on day 5, and serum IFN-γ levels were determined by ELISA.

B1: J695 (antibody, human IgG1, V domains shown)
VH: QVQLVESGGGVVQPGRSLRLSCAASGFTFSSYGMHWVRQAPGKGLEWVAFIRYDGSNKYYADSVKGRFTISRDNSKNTLYLQMNSLRAEDTAVYYCKTHGSHDNWGQGTMVTVSS
VL: QSVLTQPPSVSGAPGQRVTISCSGSRSNIGSNTVKWYQQLPGTAPKLLIYYNDQRPSGVPDRFSGSKSGTSASLAITGLQAEDEADYYCQSYDRYTHPALLFGTGTKVTVLG
notes: human IgG1 with lambda light chain
B1: the concentration for half-maximal inhibition (IC50) in [1] amounted to 50 pM. In assay [2], the “PHA assay IC50 (M) p70:p40 1:0” value came out at 1e-11 M and the “PHA assay IC50 (M) p70:p40 1:50” value turned out to be 3.5e-11 M. For the same molecule, the “IC50 (M), bioassay, Rhesus IL-12 Purified” value with recombinant rhesus IL-12 is 1e-11 M. Also, the “IC50 (M), bioassay, Baboon IL-12 PBMC sup” value in assay [3] stood at 1.5e-11 M. Besides, in [4], the “IC50 (M), bioassay, Cyno IL-12 PBMC sup” value was 1e-11 M. In assay [5], the “IFN-γ Assay IC50” value was 5.8 pM and 4.3 pM; the “PHA blast Assay IC50” value is 5.5 pM and 4.4 pM. For the same molecule, the IC50 in assay [6] was 34 pM and 30 pM.

B2: J695 (antibody, V domains shown)
VH: QVQLVESGGGVVQPGRSLRLSCAASGFTFSSYGMHWVRQAPGKGLEWVAFIRYDGSNKYYADSVKGRFTISRDNSKNTLYLQMNSLRAEDTAVYYCKTHGSHDNWGQGTMVTVSS
VL: QSVLTQPPSVSGAPGQRVTISCSGSRSNIGSNTVKWYQQLPGTAPKLLIYYNDQRPSGVPDRFSGSKSGTSASLAITGLQAEDEADYYCQSYDRYTHPALLFGTGTKVTVLG
notes: Human IgG1 with lambda light chain (detected with anti-human lambda); Made in CHO or COS cells
For B2, the binding result in assay [7] and in assay [8] was “binds” throughout. In addition, the “activity on dog IL-12 in the neutralization bioassay, against human IL-12” value with dog IL-12 is ~35 fold.
